Experimental findings from article PMC10803816, “EGFR core fucosylation, induced by hepatitis C virus, promotes TRIM40-mediated-RIG-I ubiquitination and suppresses interferon-I antiviral defenses” are described below.

Data set [1] in a line: RT-qPCR of HCV RNA, 48 h infection. To be noted: glycan lost; control: EGFR KO Huh7 complemented with wild-type EGFR.
The nature of data set [2]: confocal EGFR/Lamp1 colocalisation after EGF, Huh7. Particulars: glycan lost; control: wild-type EGFR.
A further data set is described as follows: immunoblot of total EGFR. Particulars: glycan lost; control: wild-type Flag-EGFR.
Data set [3] has as its target T1, His6-SNAIL (UniProt O95863 1-264). Put plainly: EMSA; increasing SNAIL; Beyotime EMSA kit GS005 per manufacturer; 8% native PAGE; buffer, salt, pH and temperature not stated. To be noted: protein: recombinant; tags: His6 (pET28a); label: 5' FAM; blunt.
Data set [4] has as its target T1, His6-SNAIL. Put plainly: competition; 10-fold excess (300 nM) unlabeled probe abolished binding to WT-FAM probe; Beyotime EMSA kit GS005 per manufacturer; 8% native PAGE; buffer, salt, pH and temperature not stated. Particulars: protein: recombinant; tags: His6 (pET28a); blunt.
The target of data set [5] is T1, His6-SNAIL. The experiment in a line: EMSA; text: SNAIL lost ability to bind mutant probe; legend and Methods leave open whether labeled or competitor; Beyotime EMSA kit GS005 per manufacturer; 8% native PAGE; buffer, salt, pH and temperature not stated. Particulars: protein: recombinant; tags: His6 (pET28a); label: 5' FAM per Methods (legend also mentions mutant probe added at 300 nM); blunt.

T1 sequence (O95863 whole entry): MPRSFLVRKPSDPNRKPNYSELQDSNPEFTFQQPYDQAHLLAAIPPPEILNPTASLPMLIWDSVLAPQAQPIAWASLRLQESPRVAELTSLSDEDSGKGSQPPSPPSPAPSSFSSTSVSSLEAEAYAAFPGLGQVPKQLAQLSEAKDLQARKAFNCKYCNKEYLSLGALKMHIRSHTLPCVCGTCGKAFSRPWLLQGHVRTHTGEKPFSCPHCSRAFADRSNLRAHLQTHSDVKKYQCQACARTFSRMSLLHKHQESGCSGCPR

“Epidermal growth factor receptor (EGFR, ErbB1, HER1): N352Q”: the “other: viral replication” value in data set [1] is reported as “decreases”. For the same molecule, the localisation_or_trafficking result in data set [2] was “decreases”. In the data set “immunoblot of total EGFR”, the expression_or_secretion result is given as “no change”.

B1: FUT8 promoter WT probe (-295 to -260) (dsDNA)
DNA 1: TACACTTCCTGACGTGGCAGGTGAGAGAGTGTGGGT
DNA 2: ACCCACACTCTCTCACCTGCCACGTCAGGAAGTGTA
With B1, in the data set with His6-SNAIL [3], the binding result is “binds”.

B2: FUT8 promoter WT unlabeled competitor (dsDNA)
DNA 1: TACACTTCCTGACGTGGCAGGTGAGAGAGTGTGGGT
DNA 2: ACCCACACTCTCTCACCTGCCACGTCAGGAAGTGTA
B2: the binding result with His6-SNAIL [4] is listed as “binds”.

B3: FUT8 promoter Mut probe (dsDNA)
DNA 1: TACACTTCCTGACGTGAGAGGGGTCAGAGTGTGGGT
DNA 2: ACCCACACTCTGACCCCTCTCACGTCAGGAAGTGTA
For the molecule B3, in the data set with His6-SNAIL [5], the binding result is on record as “no binding”.
